According to patent US7786083B2, “Metastin derivatives and use thereof” (Takeda Pharmaceutical Company Limited, priority 2006, dated 2010):
*1 amine or outer side, *2 acyl side, *3 side chain or, on linkers, in order; H or OH if unused. Where a SMILES comes first, the peptide text is derived from it. [ ]: non-standard residue; d: D form. Ser(Me) = O-methylserine, COC[C@H](N[*:1])C(=O)[*:2]; Arg(Me) = CNC(=N)NCCC[C@H](N)C(=O)O; Dap(CONH2) = NC(=O)NC[C@H](N)C(=O)O; Ala(cPr) = N[C@@H](CC1CC1)C(=O)O; Hyp = O=C(O)[C@@H]1C[C@@H](O)CN1; Cha = N[C@@H](CC1CCCCC1)C(=O)O; Cba = N[C@@H](CC1CCC1)C(=O)O; Abu = CC[C@H](N)C(=O)O; Dap = NC[C@H](N)C(=O)O; Aib = CC(C)(N)C(=O)O

B1: des(1)-Ac-[D-Tyr2,Glu3,Thr5,Cha6,Ala(cPr)8,Trp10]MS10 (peptide)
peptide: Ac-[dY]ENT[Cha]G[Ala(cPr)]RW-NH2
SMILES: CC(=O)N[C@H](Cc1ccc(O)cc1)C(=O)N[C@@H](CCC(=O)O)C(=O)N[C@@H](CC(N)=O)C(=O)N[C@H](C(=O)N[C@@H](CC1CCCCC1)C(=O)NCC(=O)N[C@@H](CC1CC1)C(=O)N[C@@H](CCCNC(=N)N)C(=O)N[C@@H](Cc1c[nH]c2ccccc12)C(N)=O)[C@@H](C)O
B2: des(1)-Ac-[D-Tyr2,Hyp3,Alb4,Gly5,Cha6,Ala(cPr)8,Arg(Me)9,Trp10]MS10 (peptide)
peptide: Ac-[dY][Hyp][Dap(CONH2)]G[Cha]G[Ala(cPr)][Arg(Me)]W-NH2
B3: des(1)-Ac-[D-Tyr2,Hyp3,Alb4,Thr5,Cha6,Gly7Ψ(CH2CH2)Leu8,Trp10]MS10 (peptide)
peptide: Ac-[dY][Hyp][Dap(CONH2)]T[Cha]GLRW-NH2
modifications: also: Gly6-Leu7 -CONH- replaced by -CH2CH2-
B4: des(1)-Ac-[D-Tyr2,Hyp3,Alb4,Thr5,Cha6,Gly7Ψ(CH2CH2)Leu8,Arg(Me)9,Trp10]MS10 (peptide)
peptide: Ac-[dY][Hyp][Dap(CONH2)]T[Cha]GL[Arg(Me)]W-NH2
modifications: also: Gly6-Leu7 -CONH- replaced by -CH2CH2-
B5: des(1)-Ac-[D-Tyr2,Hyp3,Thr5,Cha6,Ala(cBu)8,Arg(Me)9,Trp10]MS10 (peptide)
peptide: Ac-[dY][Hyp]NT[Cha]G[Cba][Arg(Me)]W-NH2
SMILES: CNC(=N)NCCC[C@H](NC(=O)[C@H](CC1CCC1)NC(=O)CNC(=O)[C@H](CC1CCCCC1)NC(=O)[C@@H](NC(=O)[C@H](CC(N)=O)NC(=O)[C@@H]1C[C@@H](O)CN1C(=O)[C@@H](Cc1ccc(O)cc1)NC(C)=O)[C@@H](C)O)C(=O)N[C@@H](Cc1c[nH]c2ccccc12)C(N)=O
B6: des(1)-Ac-[D-Tyr2,Hyp3,Thr5,Ser(Me)7,Arg(Me)9,Trp10]MS10 (peptide)
peptide: Ac-[dY][Hyp]NTF[Ser(Me)]L[Arg(Me)]W-NH2
B7: des(1)-Ac-[D-Tyr2,Hyp3,Thr5,Cha6,Gly7Ψ(CH2CH2)Leu8,Trp10]MS10 (peptide)
peptide: Ac-[dY][Hyp]NT[Cha]GLRW-NH2
modifications: also: Gly6-Leu7 -CONH- replaced by -CH2CH2-
B8: des(1)-Ac-[D-Tyr2,Hyp3,Alb4,Ser5,Cha6,Ala(cPr)8,Arg(Me)9,Trp10]MS10 (peptide)
peptide: Ac-[dY][Hyp][Dap(CONH2)]S[Cha]G[Ala(cPr)][Arg(Me)]W-NH2
B9: des(1)-Ac-[D-Tyr2,Hyp3,Alb4,Dap5,Cha6,Ala(cPr)8,Arg(Me)9,Trp10]MS10 (peptide)
peptide: Ac-[dY][Hyp][Dap(CONH2)][Dap][Cha]G[Ala(cPr)][Arg(Me)]W-NH2
B10: des(1)-Ac-[D-Tyr2,Hyp3,Thr5,Ala(cBu)6,Ala(cPr)8,Arg(Me)9,Trp10]MS10 (peptide)
peptide: Ac-[dY][Hyp]NT[Cba]G[Ala(cPr)][Arg(Me)]W-NH2
B11: des(1)-Ac-[D-Tyr2,Hyp3,Thr5,Phe6Ψ(CH2S)Gly7,Arg(Me)9,Trp10]MS10 (peptide)
peptide: Ac-[dY][Hyp]NTFGL[Arg(Me)]W-NH2
modifications: also: Phe5-Gly6 amide bond replaced by -CH2S-
B12: des(1)-Ac-[D-Tyr2,Hyp3,Alb4,Thr5,Cha6,Ala(cPr)8,Arg(Me)9,Trp10]MS10 (peptide)
peptide: Ac-[dY][Hyp][Dap(CONH2)]T[Cha]G[Ala(cPr)][Arg(Me)]W-NH2
B13: des(1)-Ac-[D-Tyr2,Hyp3,Alb4,Ala5,Cha6,Ala(cPr)8,Arg(Me)9,Trp10]MS10 (peptide)
peptide: Ac-[dY][Hyp][Dap(CONH2)]A[Cha]G[Ala(cPr)][Arg(Me)]W-NH2

How the values were obtained:
metastin receptors = test: Measurement of agonist activity by assaying changes in intracellular calcium ion level (FLIPR, Fluo-4 NW); type: cell-based, human; details: specific activity of the EC50 of a test compound based on the EC50 of Metastin (45-54), metastin receptor expression CHO cells
Procedure: 1) Preparation of Human Metastin and Rat Metastin Stable Expression Cell Lines
Human metastin and rat metastin stable expression cell lines were obtained by transfecting the expression plasmid for animal cells into CHO/dhfr^− cells using CellPhect Transfection Kit (manufactured by GE Healthcare). First, 240 μL of Buffer A (attached to CellPhect Transfection Kit) was added to 9.6 μg of plasmid DNA dissolved in 240 μL of distilled water followed by stirring. After the mixture was settled for 10 minutes, 480 μL of Buffer B (attached to CellPhect Transfection Kit) was added to the mixture, which was vigorously stirred to form liposomes containing the DNA. Then, 4×10^5 CHO/dhfr^− cells (obtained from ATCC) were inoculated on a 60 mm Petri dish. After culturing the cells in Ham's F-12 medium (manufactured by Nissui Seiyaku Co., Ltd.) supplemented with 10% fetal bovine serum (manufactured by BIO […], Inc.) at 37° C. for 2 days in 5% carbon dioxide gas, […] of the liposomes were dropwise added to the cells on the Petri dish. After culturing the cells in a CO2 incubator (5% CO2, 37° C.) for 6 hours, the cells were washed twice with serum-free Ham's F-12 medium and 3 mL of 15% glycerol was added to the cells on the Petri dish followed by treatment for 2 minutes. The cells were again washed twice with serum-free Ham's F-12 medium followed by incubation in Ham's F-12 medium supplemented with 10% fetal bovine serum in a CO2 incubator (5% CO2, 37° C.) for 15 hours. The cells were dispersed by trypsin treatment to recover from the Petri dish. The recovered cells were inoculated on a 6-well plate in 1.25×10^4 cells each/well and incubation was initiated in a CO2 incubator (5% CO2, 37° C.) in Dulbecco's modified Eagle medium (DMEM, manufactured by Nissui Seiyaku) containing 10% dialyzed fetal bovine serum (manufactured by JRH BIOSCIENCES, Inc.). The plasmid-transfected CHO transformants grew in the medium but the non-transfected cells gradually died, accordingly the medium was exchanged on Days 1 and 2 after the initiation of incubation to remove the dead cells. Approximately 20 colonies of the CHO transformants that kept growing on Days 8 to 10 after the incubation were isolated. From the cells in these colonies, cells showing high reactivity with the ligand peptide metastin (hereinafter merely referred to as h175 KB19 and h175 KB29 strains) were selected to provide for the following experiment.
Human metastin expression CHO cell line (h175 KB19 strain is described in a separate section) and rat metastin expression CHO cell line (h175 KB29 strain is described in a separate section) were seeded in a 96-well plate (type 3904, manufactured by Corning) at 3×10^4 cells/well, followed by incubation in a CO2 incubator (5% CO2, 37° C.) for 24 hours. For the medium, MEMα medium (nucleic acid-free, manufactured by Nikken Bio Medical Laboratory) supplemented with dialyzed 10% fetal bovine serum (manufactured by Thermo, MultiSer) was used.
3) Loading with Fluo-4 NW in Cells
As an assay buffer, 1× Hanks' balanced salt solution (HBSS, manufactured by GIBCO) supplemented with 0.1% BSA, 20 mM HEPES (pH 7.4, manufactured by GIBCO) and 1 mM Probenecid (manufactured by Molecular Probes) was prepared. The medium in the wells of the cell-seeded plate was removed and 100 μL each of the assay buffer (kept warm at 37° C.) was added to each well. After 10 mL of the assay buffer (the volume for assaying two plates) was charged in one Fluo-4NW dye mix (Component A, Fluo-4 NW calcium assay kit (starter pack), manufactured by Molecular Probes) bottle, the mixture was gently stirred to prepare the Fluo-4 NW loading solution. This loading solution was charged in each well by 50 μl each and reacted in a CO2 incubator (5% CO2, 37° C.) for 30 minutes for loading with Fluo-4 NW into the cells. Subsequently, the cells were settled at room temperature (25° C.) for 15 minutes and then used for assay.
4) Measurement of Agonist Activity […]

[1] = molecular target: metastin receptor (OT7T175) stably expressed on CHO/dhfr- cells (human or rat, not given); test: cell-based or functional assay

| Molecule | Specific Activity (metastin receptors) | Specific Activity (EC50 of test compound based on EC50 of Metastin (45-54)); agonist activity, intracellular calcium ion level, FLIPR (ratio to Metastin (45-54)) [1] |
| --- | --- | --- |
| CNC(=N)NCCC[C@H](NC(=O)[C@H](CC(C)C)NC(=O)CNC(=O)[C@H](Cc1ccccc1)NC(=O)[C@@H](NC(=O)[C@H](CC(N)=O)NC(=O)[C@@H]1C[C@@H](O)CN1C(=O)[C@@H](Cc1ccc(O)cc1)NC(C)=O)[C@@H](C)O)C(=O)N[C@@H](Cc1c[nH]c2ccccc12)C(N)=O [Compound No. 796, des(1)-Ac-[D-Tyr2,Hyp3,Thr5,Arg(Me)9,Trp10]MS10] (Ac-[dY][Hyp]NTFGL[Arg(Me)]W-NH2) | 1.2 | – |
| CNC(=N)NCCC[C@H](NC(=O)[C@H](CC(C)C)NC(=O)C(C)(C)NC(=O)[C@H](Cc1ccccc1)NC(=O)[C@@H](NC(=O)[C@H](CC(N)=O)NC(=O)[C@@H]1C[C@@H](O)CN1C(=O)[C@@H](Cc1ccc(O)cc1)NC(C)=O)[C@@H](C)O)C(=O)N[C@@H](Cc1c[nH]c2ccccc12)C(N)=O [Compound No. 811, des(1)-Ac-[D-Tyr2,Hyp3,Thr5,Aib7,Arg(Me)9,Trp10]MS10] (Ac-[dY][Hyp]NTF[Aib]L[Arg(Me)]W-NH2) | 1.5 | – |
| CC[C@H](NC(=O)[C@H](Cc1ccccc1)NC(=O)[C@@H](NC(=O)[C@H](CC(N)=O)NC(=O)[C@@H]1C[C@@H](O)CN1C(=O)[C@@H](Cc1ccc(O)cc1)NC(C)=O)[C@@H](C)O)C(=O)N[C@@H](CC(C)C)C(=O)N[C@@H](CCCNC(=N)NC)C(=O)N[C@@H](Cc1c[nH]c2ccccc12)C(N)=O [Compound No. 818, des(1)-Ac-[D-Tyr2,Hyp3,Thr5,Abu7,Arg(Me)9,Trp10]MS10] (Ac-[dY][Hyp]NTF[Abu]L[Arg(Me)]W-NH2) | 1.0 | – |
| CNC(=N)NCCC[C@H](NC(=O)[C@H](CC(C)C)NC(=O)CNC(=O)[C@H](CC1CCCCC1)NC(=O)[C@@H](NC(=O)[C@H](CC(N)=O)NC(=O)[C@@H]1C[C@@H](O)CN1C(=O)[C@@H](Cc1ccc(O)cc1)NC(C)=O)[C@@H](C)O)C(=O)N[C@@H](Cc1c[nH]c2ccccc12)C(N)=O [Compound No. 822, des(1)-Ac-[D-Tyr2,Hyp3,Thr5,Cha6,Arg(Me)9,Trp10]MS10] (Ac-[dY][Hyp]NT[Cha]GL[Arg(Me)]W-NH2) | 0.3 | – |
| CNC(=N)NCCC[C@H](NC(=O)[C@H](CC(C)C)NC(=O)[C@H](C)NC(=O)[C@H](CC1CCCCC1)NC(=O)[C@@H](NC(=O)[C@H](CC(N)=O)NC(=O)[C@@H]1C[C@@H](O)CN1C(=O)[C@@H](Cc1ccc(O)cc1)NC(C)=O)[C@@H](C)O)C(=O)N[C@@H](Cc1c[nH]c2ccccc12)C(N)=O [Compound No. 823, des(1)-Ac-[D-Tyr2,Hyp3,Thr5,Cha6,Ala7,Arg(Me)9,Trp10]MS10] (Ac-[dY][Hyp]NT[Cha]AL[Arg(Me)]W-NH2) | 0.5 | – |
| CNC(=N)NCCC[C@H](NC(=O)[C@H](CC(C)C)NC(=O)[C@H](CN)NC(=O)[C@H](Cc1ccccc1)NC(=O)[C@@H](NC(=O)[C@H](CC(N)=O)NC(=O)[C@@H]1C[C@@H](O)CN1C(=O)[C@@H](Cc1ccc(O)cc1)NC(C)=O)[C@@H](C)O)C(=O)N[C@@H](Cc1c[nH]c2ccccc12)C(N)=O [Compound No. 827, des(1)-Ac-[D-Tyr2,Hyp3,Thr5,Dap7,Arg(Me)9,Trp10]MS10] (Ac-[dY][Hyp]NTF[Dap]L[Arg(Me)]W-NH2) | 1.3 | – |
| B1 | – | 0.4 |
| B2 | – | 0.7 |
| B3 | – | 1.3 |
| B4 | – | 1.1 |
| B5 | – | 0.5 |
| B6 | – | 1.2 |
| B7 | – | 1.1 |
| B8 | – | 0.5 |
| B9 | – | 0.7 |
| B10 | – | 0.7 |
| B11 | – | 0.7 |
| B12 | – | 0.5 |
| B13 | – | 0.5 |
